B1: Syn5 RNAP: single subunit DNA-dependent RNA polymerase from marine cyanophage Syn5, amino acid sequence SEQ ID NO:23 (protein)
chain: MSFDLIARQLQRETEAAELARKRLQDARREANERSYASSNIESRKAIATFLDPIAQRIGERLFTLRRGTGAVDAAEVYKHLKNADHHHLALITMKTALDVLGKDPEPQIQQLTTAIGRNIQLELRLTYYAEENPELYKQASRFFHAGTGTRQKATVIKLKFNREGIEWDQWSRVTCHKVGQWLMLAMADVTGWIERATDRTSGGRKTKTRICYSREFLQHRDTILAAAEQLAFCQWPMLCPPIEWSNDHNGGYLSEQIRRVNPLIRKTGPLGTRKQGDIPLAMLNNLQGQAYKVNPEVLDIANHCYESNVTVGKFIRHAPLPVPPSPGEDCTEDQLTAYKRARREAEDFNAQISQKNWRTTEVMYVARKYADEASFWMPASFDYRGRVYFLNTALNPQGTDFDKALLYFAEEGPVNEWWLSFHVATTYGLDKETMVNRVQWARDNHELIDRIASDPVRHTEWHDADEPWCFLAACLEYKACVIDGTKQTSGLPIGIDATCSGLQHLAAMTRCGRTAALVNVTPTDKPADAYKTVAQASLKHLPKEQHEWITRKVTKRPVMCTPYGVTMSSARGYIRDQLVKDGHKEDLRSPGVLNGIVKAIFNEAIPEVIPGPVQVMAWLKRSAGQIIDRGDSTITWTTPSGFEVVQDLKKSKTYEVKTRIMGGARIKLQVGDGFTDEPDRDHHKSALAPNVVHSNDASLLHLTFAFWDKPFTVIHDCVLGRSCDMDQMGSDIRLHFAEMYKADVMQDWADQVGVELPVDLIKNTLDIDSVNQSLYFFS
modifications: Amino acid sequence of a cyanophage Syn5 RNAP

Experiments:
Syn5 promoter = experiment: Cross recognition of promoters, gel transcription assay; format: biochemical, cyanophage Syn5; settings: for transcription from a Syn5 promoter: T7 DNA fragment with T7 promoter replaced by Syn5 promoter
Method: FIGS. 3A-3C depict characterization of the Syn5 promoter. A) Determination of the 3′-end of Syn5 promoter. 3′-dATP, 3′-dGTP, 3′-dUTP replaced ATP, GTP and UTP, respectively, as chain terminator to sequence the 5′-end of Syn5 RNAP transcript on a template same as template 1 in FIG. 2B. Once the 5′-terminus of the transcript was determined, the sequence preceding it should be the promoter and the 3′-end of the promoter can thus be defined. A 25% TBE-urea gel was used for this assay. B) Cross recognition between Syn5 and T7 transcription systems. Syn5 RNAP synthesizes runoff products on a fragment of T7 DNA provided the T7 promoter is replaced by a Syn5 promoter (lane a). Syn5 RNAP fails to produce transcripts if the first nucleotide downstream of the promoter is changed from G to T (lane b). […] T7 RNAP produces runoff and “N+1” products upon its own promoter (lane e). Sequences of templates can be found in Table 1. C) Schematic showing the identity of the two promoters based on the above data and previous bioinformatics analysis on the Syn5 and P-SSP7 genomes, respectively. Syn5 RNAP transcribes DNA fragments containing a Syn5 promoter to produce transcripts (>1500 for template 1, lane 1; and >200 nt for template 3, lane 3).
For the gel assay results shown in FIGS. 1, 2, 3, and 13, reaction mixtures (20 μl) contained 40 mM Tris-HCl (pH 7.9), 6 mM MgCl2, 2 mM spermidine, 10 mM DTT, 200 µM[…]P, GTP and UTP, 10 µM [[…]-^32P]CTP, 1.5 U/µl RNaseOUT™ recombinant ribonuclease inhibitor (Invitrogen), 100 nM Syn5 or T7 RNAP, and DNA templates as described in the figure legends (either 2 nM phage genomic DNA, 4 nM purified PCR products, or 1 µM synthetic dsDNA fragments). Reaction mixtures were incubated at 24° C. for 30 min. The reaction mixtures described in FIG. 6 contained 40 mM Tris-HCl (pH 8.0), 200 µM[…]P, GTP and UTP, 10 µM [[…]-^32P]CTP, 1.5 U/µl RNaseOUT™, 50 nM Syn5 RNAP, DNA templates, and various amounts of MgCl2, FeCl2, MnCl2 and KCl as described in the figure legends. […] After electrophoresis, gels were dried and analyzed using a Fuji BAS 1000 Bioimaging Analyzer.

[1] = system: linearized pET24-Syn5RNAP; experiment: Long run-off RNA synthesis and incorporation of modified nucleotides (yield by A260); format: biochemical
Method: FIGS. 12A-12B depict synthesis of long run-off product and the incorporation of modified nucleotides by Syn5 and T7 RNA polymerase. A) On the linearized plasmid template as shown in the schematic, the production of RNA by either RNA polymerase (10 nM) was analyzed on agarose gel as lane 2. […] Lane 3 and 4 show the same RNA synthesis when CTP was replaced by 5mCTP and UTP by Ps-UTP, respectively. B) Incorporation of UTP or Ps-UTP into small RNA by 22, 67, and 200 nM Syn5 and T7 RNA polymerase as analyzed by denaturing TBE polyacrylamide gel. Full-length run-off product and the N+1 product are shown.
The plasmid pET24 harboring the Syn5 RNAP gene (pET24-S5RNAP) that contains a single Syn5 promoter in the RNAP gene and a single T7 promoter preceding the gene was used for filter binding assay as shown in FIG. 8. pET24-S5RNAP was also linearized by EcoRI treatment and recovered by gel extraction to serve as template for FIG. 12A.
For the results shown in FIG. 12A, reaction mixtures (10 μl) contained 40 mM Tris-HCl pH 8.0, 6 mM MgCl2, 2 mM spermidine, 10 mM DTT, 600 µM[…]P, GTP, CTP (or 5Me-CTP), and UTP (or Pseudo-UTP), 1.5 U/µl RNaseOUT™ recombinant ribonuclease inhibitor, 0.04 U/µl yeast inorganic pyrophosphatase, 10 nM linearized (NotI treated) pET24-Syn5RNAP, 0 or 160 mM KCl, and 10 nM Syn5 or T7 RNAP. Syn5 reaction was carried out at RT and T7 at 37° C. RNA products were then purified with RNA Clean & Concentrator™-5 kit into a final solution of 10 µl and 5 µl each was mixed with 5 µl denaturing RNA loading dye. Samples were then heated at 65° C. for 5 min and loaded onto 1.6% TAE agarose gel. RNA products were visualized by ethidium bromide staining. For FIG. 12B, reaction mixtures (10 μl) containing 40 mM Tris-HCl pH 8.0, 6 mM MgCl2, 2 mM spermidine, 10 mM DTT, 200 µM[…]P, GTP and UTP (or Pseudo-UTP), 10 µM [[…]-^32P]CTP, 1.5 U/µl RNaseOUT™ recombinant ribonuclease inhibitor, 0.5 μM DNA templates S5P-tDNAR or T7P-tDNAR, and various amount of Syn5 or T7 RNAP were incubated at RT (for Syn5 RNAP) or 37° C. (for T7 RNAP) for 30 min before adding of one unit of DNase I to each reaction mixture and an additional incubation of 15 min at 37° C. Reactions were then terminated by the addition of 4 µl of loading dye containing 95% formamide and 40 mM EDTA. Samples were then heated at 90° C. for 1 min and 4 µl sample each was loaded onto 6% TBE-Urea denaturing polyacrylamide gel. After electrophoresis, gels were dried and analyzed using a Fuji BAS 1000 Bioimaging Analyzer.

[2] = CTP and UTP present, 1500 nt run-off transcript, optimal temperature of each RNAP

Molecule | transcription from a Syn5 promoter (Syn5 promoter) | yield of RNA ([1]; 160 mM KCl) | yield of RNA, based on A260 [1, 2] | yield of RNA, based on A260 ([1]; CTP replaced by 5mCTP) [µg] | yield of RNA, based on A260 ([1]; UTP replaced by Ps-UTP) [µg] | first nucleotide after promoter changed from G to T (Syn5 promoter; FIG. 3B lane b) | yield relative to that in the absence of salt ([1]; 160 mM KCl)
T7 RNAP: RNA polymerase encoded by bacteriophage T7, from New England Biolabs [reference compound] | does not initiate transcription but does catalyze some non-specific RNA synthesis | completely inhibited | 0.64 µg | 0.75 | 0.59 | – | –
B1 | produce a run-off product of the expected size | 0.31 µg | 0.69 µg | 0.76 | 0.63 | unable to incorporate UTP as the first ribonucleotide | about 50%

Reference: patent publication US11066655B2, “RNA polymerase, methods of purification and methods of use” (President and Fellows of Harvard College, priority 2013, dated 2021)
